Assay results as given in US20230077716A1.

B1: 3C01 monoclonal antibody (BNA-mAb) (antibody, V domains shown)
VH: EVQLVESGGGLVQPGGSLRLSCAASGFPFSHYYMHWVRRAPGKGLVWVSRIYSDGTSSSYGDSVKGRFTISRDNAKNILYLQMNSLRAEDSATYYCCRGGYYSLDGFDFWGQGTMVTVSS
VL: DIQMTQSPLSLSVSEGDRVTITCRASQGIGNDLGWYQLKPGKAPKRLIYGASSLQSGVPSRFSGSGSGTEFTLTISSLQPEDFATYFCLQHSSFPYTFGQGTKVEIK
B2: 2H09 monoclonal antibody (BNA-mAb) (antibody, V domains shown)
VH: EVQLVESGGGLVQPGGSLRLSCAASGVTLDNYWVHWVRQVPGKGLVWVSRINADGTSKTYADSVKGRFTISRDTTRNTLFLQMNSLRGDDTALYFCARGGLYSSDAFDVWGQGTMVTVSS
VL: QSALTQPPSASGSPGQSVTISCTGTSWDVGRYNHVSWYQHHPGKAHKLIIYEVNRRPSGVPDRFSGSKSANTASLTVSGLQAEDEADYYCSSYTGNNVAVFGGGTKLTVL

Target: NA of B/New York/PV00094/17 (Y), on purified virus (Influenza B virus B/New York/PV00094/17)

| Binder | percent competition |
| --- | --- |
| B1 | 90% |
| B2 | 90% |
